Assay [1] deals with T1, mouse serum albumin (mouse, UniProt P07724 25-608).
T1 construct: also called MSA
In words: Biacore, immobilised MSA, pH 6.0. An excerpt:
(§1) […] Fc2-1, Fc3-1 and Fc4-1 kinetic data was blank subtracted and fit to a 1:1 Langmuir binding model (BIAcore Evalution software; GE) to calculate KD values.

In assay [2] the target is T2, human serum albumin (human, UniProt P02768 25-609).
T2 construct: mature; Bought protein; biotinylated in the Octet and HTRF assays; also called HSA; HuSA
As to the kind of experiment: binding ELISA on coated HSA, pH 7.4. The method, then:
(§2) After saturation with 5% PBS Casein pH 7.5, plates were washed and a dilution of AFFIMER® trimers or controls were incubated on the plate for 90 minutes. Plates were then washed, and a biotinylated polyclonal antibody anti-cystatin A (R&D Systems) was added for 1 hour. Plates were washed and AFFIMER® ILFs were detected using streptavidin-HRP. After a last washing step, TMB was added for the development of the experiment, and the plates were read at 450 nm.
A general note: ELISA stands for enzyme-linked immunosorbent assay.

Assay [3] has as its target T1, mouse serum albumin. In words: binding ELISA on coated MSA, pH 7.4. The method, then: as §2
Assay [4] addresses T3, human PD-L1-Fc (R&D Systems) chimeric protein (human, UniProt Q9NZQ7 19-239).
T3 construct: Bought reagent; also called rhPD-L1-Fc; huPD-L1; Fc part of the bought chimera not given, not described
As to the kind of experiment: Biacore single cycle kinetics on human PD-L1 Fc. (In SPR one partner is held on a chip, and binding of the other changes the refractive index at the surface.)

The target in assay [5] is T2, human serum albumin. As to the kind of experiment: Biacore, immobilised HSA, running buffer pH 7.4. On the procedure:
Affinities for mouse, human, and cynomolgus serum were also measured at pH 7.4 for four (4) AFFIMER® binders using surface plasmon resonance (SPR) (FIG. 5, Table 5). […] A concentration titration of AFFIMER® monomers was run as analyte at a flow rate of 30 μl/min or 60 μl/min. Fc2-1, Fc3-1 and Fc4-1 kinetic data was blank subtracted and fit to a 1:1 Langmuir binding model (BIAcore Evalution software; GE) to calculate KD values.

Assay [6] deals with T2, human serum albumin. In words: Biacore, immobilised HSA, running buffer pH 6.0.
Text: as §1

This is an account of results in patent publication US20230272011A1 (AVACTA LIFE SCIENCES, published 2023).

T3 sequence (Q9NZQ7 19-239, change not shown): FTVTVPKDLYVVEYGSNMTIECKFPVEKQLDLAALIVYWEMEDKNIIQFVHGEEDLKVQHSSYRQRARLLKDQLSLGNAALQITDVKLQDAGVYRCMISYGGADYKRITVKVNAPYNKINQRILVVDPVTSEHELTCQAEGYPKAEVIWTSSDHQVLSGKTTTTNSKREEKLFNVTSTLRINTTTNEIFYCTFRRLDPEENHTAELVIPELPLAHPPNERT
T1 sequence (P07724 25-608 limits assumed): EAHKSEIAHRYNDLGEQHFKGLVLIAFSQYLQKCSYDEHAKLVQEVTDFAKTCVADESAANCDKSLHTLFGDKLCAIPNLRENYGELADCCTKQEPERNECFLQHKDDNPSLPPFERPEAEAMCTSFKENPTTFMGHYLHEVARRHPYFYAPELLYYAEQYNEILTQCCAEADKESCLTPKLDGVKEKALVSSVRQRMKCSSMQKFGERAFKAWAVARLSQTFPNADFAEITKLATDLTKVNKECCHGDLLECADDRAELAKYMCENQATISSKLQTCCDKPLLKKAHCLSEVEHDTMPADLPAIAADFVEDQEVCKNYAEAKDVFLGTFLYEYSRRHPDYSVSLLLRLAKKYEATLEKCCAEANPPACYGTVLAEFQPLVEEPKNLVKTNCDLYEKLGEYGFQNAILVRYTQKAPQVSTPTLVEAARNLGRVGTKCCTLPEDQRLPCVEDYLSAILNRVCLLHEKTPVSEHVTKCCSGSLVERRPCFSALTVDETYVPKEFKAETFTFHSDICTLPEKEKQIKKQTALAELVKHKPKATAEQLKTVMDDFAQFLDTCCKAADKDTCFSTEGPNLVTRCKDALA

B1: AVA04-251 XT60 (designed binder)
chain: MIPRGLSEAKPATPEIQEIVDKVKPQLEEKTNETYGKLEAVQYKTQVLAREGRQDWVLSTNYYIKVRAGDNKYMHLKVFNGPWVPFPHQQLADRVLTGYQVDKNKDDELTGFAEAAAKEAAAKEAAAKEAAAKEAAAKEAAAKMIPRGLSEAKPATPEIQEIVDKVKPQLEEKTNETYGKLEAVQYKTQVLAREGRQDWVLSTNYYIKVRAGDNKYMHLKVFNGPWVPFPHQQLADRVLTGYQVDKNKDDELTGFAEAAAKEAAAKEAAAKEAAAKEAAAKEAAAKMIPRGLSEAKPATPEIQEIVDKVKPQLEEKTNETYGKLEAVQYKTQVLADWWQAKWPHSTNYYIKVRAGDNKYMHLKVFNGPYKVHQSSGGADRVLTGYQVDKNKDDELTGFHHHHHH
In general, Kd refers to the concentration at which binding is half-saturated. A high value points to weaker binding. A word on the koff: it is the rate constant with which the complex falls apart. A high value points to fast dissociation. Usually kon stands for the second-order rate constant of association. One may read the EC50 as the concentration at which the effect is half-maximal. A high value points to weaker potency. For the molecule B1, the Kd with mouse serum albumin [1] turned out to be 108 nM; in assay [4], 0.558 nM; with human serum albumin [5] it was 661 nM; in the assay with human serum albumin [6], 67.8 nM. Moreover, the koff in the assay with mouse serum albumin [1] came to 0.0326 s⁻¹; in assay [4], 0.000331 s⁻¹; with human serum albumin [5] it was 0.00846 s⁻¹; with human serum albumin [6] it was 0.00339 s⁻¹. The kon in the assay with mouse serum albumin [1] worked out at 301000 M⁻¹ s⁻¹; in assay [4], 594000 M⁻¹ s⁻¹; with human serum albumin [5], 12800 M⁻¹ s⁻¹; with human serum albumin [6] it was 50100 M⁻¹ s⁻¹. The values for the EC50 in the assay with human serum albumin [2] and with mouse serum albumin [3] were 5.7 nM and 134 nM, respectively.

B2: AVA04-251 XT61 (designed binder)
chain: MIPRGLSEAKPATPEIQEIVDKVKPQLEEKTNETYGKLEAVQYKTQVLAREGRQDWVLSTNYYIKVRAGDNKYMHLKVFNGPWVPFPHQQLADRVLTGYQVDKNKDDELTGFAEAAAKEAAAKEAAAKEAAAKEAAAKEAAAKMIPRGLSEAKPATPEIQEIVDKVKPQLEEKTNETYGKLEAVQYKTQVLADWWQAKWPHSTNYYIKVRAGDNKYMHLKVFNGPYKVHQSSGGADRVLTGYQVDKNKDDELTGFAEAAAKEAAAKEAAAKEAAAKEAAAKEAAAKMIPRGLSEAKPATPEIQEIVDKVKPQLEEKTNETYGKLEAVQYKTQVLAREGRQDWVLSTNYYIKVRAGDNKYMHLKVFNGPWVPFPHQQLADRVLTGYQVDKNKDDELTGFHHHHHH
As to B2, the Kd with mouse serum albumin [1] was 113 nM; in assay [4] it was 0.298 nM; with human serum albumin [5] it was 325 nM; in the assay with human serum albumin [6] it was 31.1 nM. The koff with mouse serum albumin [1] stood at 0.0337 s⁻¹; in assay [4], 0.000159 s⁻¹; with human serum albumin [5] it was 0.00758 s⁻¹; with human serum albumin [6], 0.00308 s⁻¹. Further, the kon was found to be 297000 M⁻¹ s⁻¹ with mouse serum albumin [1], 534000 M⁻¹ s⁻¹ in assay [4], 23300 M⁻¹ s⁻¹ in the assay with human serum albumin [5] and 98800 M⁻¹ s⁻¹ with human serum albumin [6]. Besides, the values for the EC50 with human serum albumin [2] and in the assay with mouse serum albumin [3] were 8.8 nM and 60.8 nM, respectively.
